“And” between values parts separate entries of the source, which are not always exact repeats. Equal entries are not always repeated. Where no end group is shown, it is not given here. [ ]: non-standard residue; d: D form. Tyr(3-I) = N[C@@H](Cc1ccc(O)c(I)c1)C(=O)O; pGlu = O=C1CC[C@@H](C(=O)O)N1; Nle = CCCC[C@H](N)C(=O)O

The results in this text go back to US20050176069A1 (PHARMACIA AND UPJOHN, published 2005).

First the molecules themselves.
B1: ILNleRF-NH2 (peptide)
peptide: IL[Nle]RF-NH2
modifications: N-terminus assumed
SMILES: CCCC[C@H](NC(=O)[C@H](CC(C)C)NC(=O)[C@@H](N)[C@@H](C)CC)C(=O)N[C@@H](CCCNC(=N)N)C(=O)N[C@@H](Cc1ccccc1)C(N)=O
notes: Synthetic
B2: 3-Iodo-Y-DVPGVLRF-NH2 (peptide)
peptide: [Tyr(3-I)]DVPGVLRF-NH2
modifications: also: 125I in the radiolabelled probe
notes: N-terminally iodo-Tyr-extended flp18 analog
B3: 3-Iodo-Y-PGVLRF-NH2 (peptide)
peptide: [Tyr(3-I)]PGVLRF-NH2
modifications: N-terminus assumed
SMILES: CC(C)C[C@H](NC(=O)[C@@H](NC(=O)CNC(=O)[C@@H]1CCCN1C(=O)[C@@H](N)Cc1ccc(O)c(I)c1)C(C)C)C(=O)N[C@@H](CCCNC(=N)N)C(=O)N[C@@H](Cc1ccccc1)C(N)=O
notes: Synthetic; also called 3-Ioda-Y-PGVLRF-NH2
B4: VLRF-NH2 (peptide)
peptide: VLRF-NH2
notes: also called C-terminal tetrapeptide VLRF-NH2
B5: 3-Iodo-Y-GVLRF-NH2 (peptide)
peptide: [Tyr(3-I)]GVLRF-NH2
modifications: N-terminus assumed
SMILES: CC(C)C[C@H](NC(=O)[C@@H](NC(=O)CNC(=O)[C@@H](N)Cc1ccc(O)c(I)c1)C(C)C)C(=O)N[C@@H](CCCNC(=N)N)C(=O)N[C@@H](Cc1ccccc1)C(N)=O
notes: Synthetic
B6: 3-Iodo-Y-VPGVLRF-NH2 (peptide)
peptide: [Tyr(3-I)]VPGVLRF-NH2
modifications: N-terminus assumed
SMILES: CC(C)C[C@H](NC(=O)[C@@H](NC(=O)CNC(=O)[C@@H]1CCCN1C(=O)[C@@H](NC(=O)[C@@H](N)Cc1ccc(O)c(I)c1)C(C)C)C(C)C)C(=O)N[C@@H](CCCNC(=N)N)C(=O)N[C@@H](Cc1ccccc1)C(N)=O
notes: Synthetic
B7: p…-NH2 (leucomyosuppressin) (peptide)
peptide: [pGlu]DVDHVFLRF-NH2
SMILES: CC(C)C[C@H](NC(=O)[C@H](Cc1ccccc1)NC(=O)[C@@H](NC(=O)[C@H](Cc1c[nH]cn1)NC(=O)[C@H](CC(=O)O)NC(=O)[C@@H](NC(=O)[C@H](CC(=O)O)NC(=O)[C@@H]1CCC(=O)N1)C(C)C)C(C)C)C(=O)N[C@@H](CCCNC(=N)N)C(=O)N[C@@H](Cc1ccccc1)C(N)=O

In one assay the target is T1, CEGPCR4 (C. elegans).
T1 construct: Expressed in CHO cells
T1 chain: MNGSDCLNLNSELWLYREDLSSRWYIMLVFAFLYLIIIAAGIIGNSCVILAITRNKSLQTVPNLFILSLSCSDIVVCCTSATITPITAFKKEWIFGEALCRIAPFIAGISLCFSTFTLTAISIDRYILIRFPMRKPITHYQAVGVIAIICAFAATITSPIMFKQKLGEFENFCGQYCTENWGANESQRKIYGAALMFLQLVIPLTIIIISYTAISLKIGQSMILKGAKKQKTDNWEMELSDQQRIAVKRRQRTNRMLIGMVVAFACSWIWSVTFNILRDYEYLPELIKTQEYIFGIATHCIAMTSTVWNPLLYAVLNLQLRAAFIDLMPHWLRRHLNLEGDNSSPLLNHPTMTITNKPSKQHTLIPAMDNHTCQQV
Put plainly: competition binding assay, CEGPCR4/CHO membranes, vs [125I-Y]DVPGVLRF-NH2.
Consider EIPGVLRF-NH2 [EIPGVLRF-NH2], for which the IC50 lay within 0.5 to 10 nM. Still for that read-out and setting: next, B1: 60000 to 900000 nM. On the same count and under the same terms, next, GVLRF-NH2 [GVLRF-NH2]: 1 to 60 nM; B2: 1 to 60 nM.

PGVLRF-NH2 [PGVLRF-NH2]: the IC50 is 1 to 60 nM. On the same count and under the same terms, in the case of YGVLRF-NH2 (Synthetic) [Y-GVLRF-NH2] it was 1 to 60 nM; in that of TNRNFLRF-NH2 [TNRNFLRF-NH2 (Lobster peptide II)], 50000 to 500000 nM; in that of DFDGAMPGVLRF-NH2 [DFDGAMPGVLRF-NH2], 0.5 to 10 nM. As for SEVPGVLRF-NH2 [SEVPGVLRF-NH2], the IC50 is 0.5 to 10 nM. On the same count and under the same terms, in the case of B3 it was 1 to 60 nM; in that of Ac-VPGVLRF-NH2 [Ac-VPGVLRF-NH2], 1 to 60 nM. Same read-out and setting: next, B4: approximately 400 nM; ASPSFIRF-NH2 [ASPSFIRF-NH2]: 0.5 to 10 nM. The molecule SAEPFGTMRF-NH2 [SAEPFGTMRF-NH2] came in with an IC50 of 50000 to 500000 nM. Still for that read-out and setting: next, Ac-GVLRF-NH2 [Ac-GVLRF-NH2]: 1 to 60 nM; YDVPGVLRF-NH2 [Y-DVPGVLRF-NH2]: 1 to 60 nM.

For SPLGTMRF-NH2 [SPLGTMRF-NH2], the IC50 was 50000 to 500000 nM.

In the case of DVPGVLRF-NH2 [DVPGVLRF-NH2], the IC50 is 0.5 to 10 nM and 1 to 60 nM. Same read-out and setting: in the case of YVPGVLRF-NH2 (Synthetic) [Y-VPGVLRF-NH2] it was 1 to 60 nM.

Turning to KSVPGVLRF-NH2 [KSVPGVLRF-NH2], the IC50 was in the range of 0.5 to 10 nM. Same read-out and setting: in the case of EIVFHQISPIFFRF-NH2 [EIVFHQISPIFFRF-NH2] it was 50000 to 500000 nM; in that of B5, 1 to 60 nM; in that of KPNFLRF-NH2 [KPNFLRF-NH2], 60000 to 900000 nM. The same measure, in the same setting: next, B6: 1 to 60 nM.

For NGAPQPFVRF-NH2 [NGAPQPFVRF-NH2], the IC50 lay in the range of 50000 to 500000 nM. As to SDNFMRF-NH2 [SDNFMRF-NH2], the IC50 lay within 50000 to 500000 nM. Same read-out and setting: next, PDNFMRF-NH2 [PDNFMRF-NH2]: 50000 to 500000 nM.

For the molecule VPGVLRF-NH2 [VPGVLRF-NH2], the half-maximal inhibitory concentration (IC50) was in the range of 1 to 60 nM. Molecule YPGVLRF-NH2 (Synthetic) [Y-PGVLRF-NH2] returned an IC50 of 1 to 60 nM.

The next assay deals with T2, CEGPCR4 (C. elegans).
T2 chain: T1 chain
The assay is described as above.
B7 gave a concentration for half-maximal inhibition (IC50) of 60000 to 900000 nM. Same read-out and setting: in the case of TDVDHVFLRF-NH2 […-NH2 (dromyosuppressin)] it was 50000 to 500000 nM; in that of GMPGVLRF-NH2 [GMPGVLRF-NH2 (AF20)], 0.5 to 10 nM; in that of AVPGVLRF-NH2 [AVPGVLRF-NH2 (AF3)], 0.5 to 10 nM. Same read-out and setting: in the case of GDVPGVLRF-NH2 […-NH2 (AF4)] it was 0.5 to 10 nM.

For orientation: IC50 means the concentration at which inhibition is half-maximal. Read a high IC50 as weaker potency in that assay.
